B1: Chaperonin GroEL 2 (Mycobacterium tuberculosis (strain ATCC 25618 / P9WPE7 (parent)
chain: MAKTIAYDEEARRGLERGLNALADAVKVTLGPKGRNVVLEKKWGAPTITNDGVSIAKEIELEDPYEKIGAELVKEVAKKTDDVAGDGTTTATVLAQALVREGLRNVAAGANPLGLKRGIEKAVEKVTETLLKGAKEVETKEQIAATAAISAGDQSIGDLIAEAMDKVGNEGVITVEESNTFGLQLELTEGMRFDKGYISGYFVTDPERQEAVLEDPYILLVSSKVSTVKDLLPLLEKVIGAGKPLLIIAEDVEGEALSTLVVNKIRGTFKSVAVKAPGFGDRRKAMLQDMAILTGGQVISEEVGLTLENADLSLLGKARKVVVTKDETTIVEGAGDTDAIAGRVAQIRQEIENSDSDYDREKLQERLAKLAGGVAVIKAGAATEVELKERKHRIEDAVRNAKAAVEEGIVAGGGVTLLQAAPTLDELKLEGDEATGANIVKVALEAPLKQIAFNSGLEPGVVAEKVRNLPAGHGLNAQTGVYEDLLAAGVADPVKVTRSALQNAASIAGLFLTTEAVVADKPEKEKASVPGGGDMGGMDF
partner: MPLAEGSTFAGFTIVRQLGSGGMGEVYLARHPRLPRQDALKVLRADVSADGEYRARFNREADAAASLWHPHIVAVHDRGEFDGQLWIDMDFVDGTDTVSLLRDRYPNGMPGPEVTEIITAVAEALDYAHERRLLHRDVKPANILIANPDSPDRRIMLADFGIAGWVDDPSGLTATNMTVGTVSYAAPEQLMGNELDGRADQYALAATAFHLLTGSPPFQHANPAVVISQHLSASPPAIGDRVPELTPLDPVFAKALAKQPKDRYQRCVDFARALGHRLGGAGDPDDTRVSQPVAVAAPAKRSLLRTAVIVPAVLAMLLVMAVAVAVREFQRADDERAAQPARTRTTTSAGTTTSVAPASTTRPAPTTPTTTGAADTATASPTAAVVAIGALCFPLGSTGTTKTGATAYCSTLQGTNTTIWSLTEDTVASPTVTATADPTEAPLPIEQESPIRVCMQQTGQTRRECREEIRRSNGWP
B2: Alpha-crystallin (Mycobacterium tuberculosis (strain ATCC 25618 / P9WMK1 (parent)
chain: MATTLPVQRHPRSLFPEFSELFAAFPSFAGLRPTFDTRLMRLEDEMKEGRYEVRAELPGVDPDKDVDIMVRDGQLTIKAERTEQKDFDGRSEFAYGSFVRTVSLPVGADEDDIKATYDKGILTVSVAVSEGKPTEKHIQIRSTN
partner: B1 partner

Variants of: B1
Conditions: with pknf_myctu pknF

| Variant | effect of a mutation on the interaction |
| --- | --- |
| T127A | decreasing interaction |
| T90A | decreasing interaction |
| T92A | decreasing interaction |

Variants of: B2
Conditions: with pknf_myctu pknF

| Variant | effect of a mutation on the interaction |
| --- | --- |
| T4A | decreasing interaction |
| S27A | decreasing interaction |
| T134A | decreasing interaction |
| S19A | decreasing interaction |

— IntAct's records for PubMed 20925060
